Source: publication PMC3793875, “Fluorescence correlation spectroscopy, combined with bimolecular fluorescence complementation, reveals the effects of β-arrestin complexes and endocytic targeting on the membrane mobility of neuropeptide Y receptors” (Biochimica et Biophysica Acta, 2012)
Numbering of substitutions follows the chain as printed. Values belong to the binder of their own block, whether it stands above or below them.

Assays:
[1] = molecular target: T1, Y1 receptor-Gc (rat Y1 receptor fused at the C terminus to sfGFP fragment 155-238) (rat, UniProt P21555 1-382); assay: radioligand binding; as a1 but on membranes of the HEK293T BiFC cell line co-expressing β-arrestin2 ΔLIEFD-Gn (Y1 A2Δ); 16 pM [125I]PYY; conditions: one partner purified
T1 construct: neuropeptide Y receptor type 1, rat; cDNA transferred to the pCMV FLAG vector for transfection; also called Y1-Gc; receptor of the Y1 A1, Y1 A2 and Y1 A2Δ cell lines; source: HEK293T, stably transfected into β-arrestin-Gn clonal lines; live or fixed cells, or membranes
T1 sequence (looked up): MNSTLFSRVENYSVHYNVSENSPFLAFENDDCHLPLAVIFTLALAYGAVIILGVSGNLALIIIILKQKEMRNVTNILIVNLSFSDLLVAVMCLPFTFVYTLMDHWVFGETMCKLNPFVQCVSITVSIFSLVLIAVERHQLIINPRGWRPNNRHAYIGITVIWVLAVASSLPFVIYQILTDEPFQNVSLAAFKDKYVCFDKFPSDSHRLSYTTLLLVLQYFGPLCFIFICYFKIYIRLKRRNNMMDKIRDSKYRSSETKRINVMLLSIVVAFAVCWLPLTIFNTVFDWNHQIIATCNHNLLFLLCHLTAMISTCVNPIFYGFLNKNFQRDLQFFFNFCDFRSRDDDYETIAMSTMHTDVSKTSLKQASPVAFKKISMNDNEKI

[2] = molecular target: T1, Y1 receptor-Gc (rat Y1 receptor fused …); assay: radioligand binding; as a1 but on membranes of HEK293T BiFC cell lines co-expressing β-arrestin1-Gn (Y1 A1, Y16A A1); 16 pM [125I]PYY; conditions: one partner purified
Y1 6A receptor-Gc [3] = molecular target: T2, Y1 6A receptor-Gc (rat, UniProt P21555 1-382, S352A | T353A | T356A | S359A | T361A | S362A); assay: as above; conditions: one partner purified
T2 construct: neuropeptide Y receptor type 1, rat, with six C tail serine/threonine residues changed to alanine; also called Y16A-Gc; receptor of the Y16A A1 and Y16A A2 cell lines; source: HEK293 cells stably co-expressing β-arrestin-Gn; live cells or membranes
T2 sequence (looked up): T1 sequence (looked up) with S352A, T353A, T356A, S359A, T361A, S362A

[4] = molecular target: T3, Y1 receptor-sfGFP (rat NPY Y1 receptor, N-terminal FLAG, C-terminal superfolder GFP) (rat, UniProt P21555 1-382); assay: radioligand binding; competition with [125I]PYY (16 pM for Y1, 10 pM for Y2 receptors) on membranes of tetracycline-induced 293TR Y receptor-sfGFP cell lines; 90 min at 21 °C; 25 mM HEPES, 2.5 mM CaCl2, 1.0 mM MgCl2, 0.1% BSA, 0.1 mg/ml bacitracin, pH 7.4; IC50 converted to pKi by the Cheng-Prusoff equation; conditions: one partner purified
T3 construct: neuropeptide Y receptor type 1, rat; sfGFP here is enhanced GFP with S30R, Y39N, M153T and V163A (wild type GFP numbering), lacking the start Met; linker LRPLE between receptor C terminus and sfGFP; also called Y1sfGFP; Y1-sfGFP; source: membranes or live cells; not shown: sfGFP via linker LRPLE, C-terminal, kept
T3 sequence (looked up): T1 sequence (looked up)

Y1 6A receptor-sfGFP = molecular target: T4, Y1 6A receptor-sfGFP (rat, UniProt P21555 1-382, S352A | T353A | T356A | S359A | T361A | S362A); assay: as above; conditions: one partner purified
T4 construct: neuropeptide Y receptor type 1, rat, with six C tail serine/threonine residues changed to alanine; also called Y16AsfGFP; source: membranes or live cells; not shown: sfGFP via linker LRPLE, C-terminal, kept
T4 sequence (looked up): T1 sequence (looked up) with S352A, T353A, T356A, S359A, T361A, S362A

[5] = molecular target: T1, Y1 receptor-Gc (rat Y1 receptor fused …); assay: radioligand binding; as a1 but on membranes of HEK293T BiFC cell lines co-expressing β-arrestin2-Gn (Y1 A2, Y16A A2); 16 pM [125I]PYY; conditions: one partner purified
Y1 6A receptor-Gc [6] = molecular target: T2, Y1 6A receptor-Gc; assay: as above; conditions: one partner purified
[7] = molecular target: T1, Y1 receptor-Gc (rat Y1 receptor fused …); assay: split reporter (BiFC, NanoBiT); sfGFP BiFC in stable HEK293 cells in 96 well plates, NPY 0.1 nM-3 μM for 60 min at 37 °C, fixed, confocal platereader images quantified by granularity analysis (average granule intensity/cell); conditions: partners not purified

- pKi [1]: 9.44
- pKi [2]: 9.45
- pKi (Y1 6A receptor-Gc [3]): 9.3
- pKi [4]: 9.5
- pKi (Y1 6A receptor-sfGFP): 9.22
- pKi [5]: 9.54
- pKi (Y1 6A receptor-Gc [6]): 9.48
B1: peptide YY (PYY), unlabelled (peptide)
peptide: not shown
notes: neither species nor supplier is stated; surmised

- pEC50 of NPY in stimulating the BiFC response (β-arrestin recruitment) [7]: 8.3
B2: β-arrestin1-Gn (human β-arrestin1 fused at the C terminus to sfGFP fragment 2-172) (natural protein, UniProt P49407 1-418, looked up)
chain: MGDKGTRVFKKASPNGKLTVYLGKRDFVDHIDLVDPVDGVVLVDPEYLKERRVYVTLTCAFRYGREDLDVLGLTFRKDLFVANVQSFPPAPEDKKPLTRLQERLIKKLGEHAYPFTFEIPPNLPCSVTLQPGPEDTGKACGVDYEVKAFCAENLEEKIHKRNSVRLVIRKVQYAPERPGPQPTAETTRQFLMSDKPLHLEASLDKEIYYHGEPISVNVHVTNNTNKTVKKIKISVRQYADICLFNTAQYKCPVAMEEADDTVAPSSTFCKVYTLTPFLANNREKRGLALDGKLKHEDTNLASSTLLREGANREILGIIVSYKVKVKLVVSRGGLLGDLASSDVAVELPFTLMHPKPKEEPPHREVPENETPVDTNLIELDTNDDDIVFEDFARQRLKGMKDDKEEEEDGTGSPQLNNR
notes: β-arrestin1, human, full length with the stop codon removed; The keyword list gives Gn as sfGFP 2-173, the methods as 2-172; also called A1; not shown: Gn (sfGFP fragment 2-172) via linker QRPLE, C-terminal, kept
